What was measured:
[1] = target: T1, LRRKtide peptide (RLGRDKYKTLRQIRQ)
T1 chain: RLGRDKYKTLRQIRQ

[2] = target: T2, Nictide (RLGWWRFYTLRRARQGNTKQR)
T2 chain: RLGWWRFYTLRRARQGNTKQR

B1: GST-LRRK2[1326-2527, G2019S] (protein)
chain: LKKAVPYNRMKLMIVGNTGSGKTTLLQQLMKTKKSDLGMQSATVGIDVKDWPIQIRDKRKRDLVLNVWDFAGREEFYSTHPHFMTQRALYLAVYDLSKGQAEVDAMKPWLFNIKARASSSPVILVGTHLDVSDEKQRKACMSKITKELLNKRGFPAIRDYHFVNATEESDALAKLRKTIINESLNFKIRDQLVVGQLIPDCYVELEKIILSERKNVPIEFPVIDRKRLLQLVRENQLQLDENELPHAVHFLNESGVLLHFQDPALQLSDLYFVEPKWLCKIMAQILTVKVEGCPKHPKGIISRRDVEKFLSKKRKFPKNYMSQYFKLLEKFQIALPIGEEYLLVPSSLSDHRPVIELPHCENSEIIIRLYEMPYFPMGFWSRLINRLLEISPYMLSGRERALRPNRMYWRQGIYLNWSPEAYCLVGSEVLDNHPESFLKITVPSCRKGCILLGQVVDHIDSLMEEWFPGLLEIDICGEGETLLKKWALYSFNDGEEHQKILLDDLMKKAEEGDLLVNPDQPRLTIPISQIAPDLILADLPRNIMLNNDELEFEQAPEFLLGDGSFGSVYRAAYEGEEVAVKIFNKHTSLRLLRQELVVLCHLHHPSLISLLAAGIRPRMLVMELASKGSLDRLLQQDKASLTRTLQHRIALHVADGLRYLHSAMIIYRDLKPHNVLLFTLYPNAAIIAKIADYSIAQYCCRMGIKTSEGTPGFRAPEVARGNVIYNQQADVYSFGLLLYDILTTGGRIVEGLKFPNEFDELEIQGKLPDPVKEYGCAPWPMVEKLIKQCLKENPQERPTSAQVFDILNSAELVCLTRRILLPKNVIVECMVATHHNSRNASIWLGCGHTDRGQLSFLDLNTEGYTSEEVADSRILCLALVHLPVEKESWIVSGTQSGTLLVINTEDGKKRHTLEKMTDSVTCLYCNSFSKQSKQKNFLLVGTADGKLAIFEDKTVKLKGAAPLKILNIGNVSTPLMCLSESTNSTERNVMWGGCGTKIFSFSNDFTIQKLIETRTSQLFSYAAFSDSNIITVVVDTALYIAKQNSPVVEVWDKKTEKLCGLIDCVHFLREVMVKENKESKHKMSYSGRVKTLCLQKNTALWIGTGGGHILLLDLSTRRLIRVIYNFCNSVRVMMTAQLGSLKNVMLVLGYNRKNTEGTQKQKEIQSCLTVWDINLPHEVQNLEKHIEVRKELAEKMRRTSVE
[1]
  Km (phosphorylation of LRRKtide, P81 paper 32P assay): a similar Km of approximately 200 µM
[2]
  Km (concentration dependent phosphorylation of Nictide, 5 min reactions): Calculated Km values are 6 µM for Nictide

Source: patent publication US20090142784
